The text below walks through data of US20260146069A1 (PAPYRUS THERAPEUTICS, published 2026).

This data set concerns the molecule itself. The data set can be described thus: Western blot (8% SDS-PAGE, goat anti-human OPCML) of Ni-NTA purified protein; self-association. On the procedure:
Samples were separated on an 8% SDS-PAGE gel, transferred to a nitrocellulose or polyvinylidene fluoride (PVDF) membrane (Millipore Corporation), blocked, and incubated with polyclonal goat anti-human OBCAM (OPCML; R&D Systems) as a primary antibody, diluted 1:1000, at 4° C. overnight. After washing, the membrane was incubated with HRP-labeled anti-goat as the secondary antibody, diluted 1:5000. After final washings, proteins were detected using Immobilon Western Chemiluminescent HRP substrate system (Millipore) and GE Healthcare Amersham “Hyperfilm” ECL film with a Kodak SRX2000 (Rochester, NY, USA) developer machine.

B1: rOPCML-Fc protein (PYTX-004 construct) (Fc fusion)
chain: ATFPKAMDNVTVRQGESATLRCTIDDRVTRVAWLNRSTILYAGNDKWSIDPRVIILVNTPTQYSIMIQNVDVYDEGPYTCSVQTDNHPKTSRVHLIVQVPPQIMNISSDITVNEGSSVTLLCLAIGRPEPTVTWRHLSVKEGQGFVSEDEYLEISDIKRDQSGEYECSALNDVAAPDVRKVKITVNYPPYISKAKNTGVSVGQKGILSCEASAVPMAEFQWFKEETRLATGLDGMRIENKGRMSTLTFFNVSEKDYGNYTCVATNKLGNTNASITLYGPGGGGLEVLFQGPGGSTKGPSVFLFPPKPKDTLMISRTPEVTCVVVDVSHEDPEVKFNWYVDGVEVHNAKTKPREEQYNSTYRVVSVLTVLHQDWLNGKEYKCKVSNKALPAPIEKTISKAKGQPREPQVYTLPPSRDELTKNQVSLTCLVKGFYPSDIAVEWESNGQPENNYKTTPPVLDSDGSFFLYSKLTVDKSRWQQGNVFSCSVMHEALHNHYTQKSLSLSPGKRTGHHHHHH
notes: Expressed in HEK-293 clone 18G9 and purified on Ni-NTA; After purification it reports a 160 kDa form and an 80 kDa monomer; also called rOPCML-Fc PYTX-004; OPCML-Fc PYTX-004
On to B1, for which the binding result is “binds”.
